Among the data in paper PMC12866179, “Oxidized MIF is an Alzheimer’s disease drug target relaying external risk factors to tau pathology” (Cell Reports Medicine, 2025) are stoichiometry N values, retold here.

The target in this test is recombinant human MIF-C80W (human). In words: SEC-MALS; 100 uM MIF (WT or C80W) in 20 mM phosphate buffer, with or without 100 uM PAV-174; TSKgel G2000SWXL, 0.5 mL/min, 25 C; UV 280 nm and miniDawn Treos light scattering. A general note: SEC sorts molecules by how far they enter the pores of the column.

One may read the stoichiometry N as a count of units in the complex or per binding partner. Regarding “recombinant human MIF-C80W (natural protein)”, the stoichiometry N worked out at 3.
